The values below come from paper PMC10716038, “Talin and kindlin use integrin tail allostery and direct binding to activate integrins” (Nature Structural & Molecular Biology, 2023).

The chains are these.
B1: talin-1 head domain (THD1) [not stated] / ATTO 488-labelled β3-CT (488–β3-CT) [modified: ATTO 488 at the N terminus; ATTO 488 at the N terminus] [not stated] (parent)
chain 1: MVALSLKISIGNVVKTMQFEPSTMVYDACRMIRERIPEALAGPPNDFGLFLSDDDPKKGIWLEAGKALDYYMLRNGDTMEYRKKQRPLKIRMLDGTVKTIMVDDSKTVTDMLMTICARIGITNHDEYSLVRELMEEKKDEGTGTLRKDKTLLRDEKKMEKLKQKLHTDDELNWLDHGRTLREQGVEEHETLLLRRKFFYSDQNVDSRDPVQLNLLYVQARDDILNGSHPVSFDKACEFAGFQCQIQFGPHNEQKHKAGFLDLKDFLPKEYVKQKGERKIFQAHKNCGQMSEIEAKVRYVKLARSLKTYGVSFFLVKEKMKGKNKLVPRLLGITKECVMRVDEKTKEVIQEWSLTNIKRWAASPKSFTLDFGDYQDGYYSVQTTEGEQIAQLIAGYIDIILKKKKS
chain 2: KLLITIHDRKEFAKFEEERARAKWDTANNPLYKEATSTFTNITYRGT

This assay covers variants of B1. Description: MST. The settings on record: with ATTO 488-labelled β3-CT (488–β3-CT) [modified: ATTO 488 at the N terminus, 30-40 µM KIND2, n = 2, read off a plot.
Take chain 1 I398A: the screen value is 0.65.

Regarding chain 1 K402A, the screen value came out at 0.45.

As for chain 1 K401A, the screen value was 0.55.

On to chain 1 K404A, for which the screen value is 0.75.

As for chain 1 L400A, the screen value is 1.1.

As to chain 1 K403E, the screen value worked out at 0.57.

As for chain 1 K403A, the screen value came out at 0.5.

On to chain 1 I396A, for which the screen value is 1.

For chain 1 Y395A, the screen value came out at 0.68.

chain 1 K402A K403A: the screen value came to 0.7.

Turning to chain 1 I399A, the screen value was 0.93.
